Legend:
[1] = target: integrin on U87MG cells; test: cell-based or functional assay
[2] = target: T1, Tie2 proteins (Q02763, R&D systems) (UniProt Q02763 23-745, limits assumed); test: ELISA, Tie2 coated, Ang2 proteins at 5 µg/ml
T1 construct: Bought protein coated on ELISA plates

[3] = target: T2, integrin alpha5beta1 protein (R&D systems) (human, UniProt P08648 42-995; P05556 21-728, limits assumed); test: ELISA, integrin coated at 5 µg/ml, FLAG-Ang2 at 10 µg/ml, anti-FLAG-HRP
T2 construct: Bought recombinant heterodimer coated on the ELISA plate; also called α5β1
T2 sequence (P08648 42-995 limits assumed, chain 1 of 2): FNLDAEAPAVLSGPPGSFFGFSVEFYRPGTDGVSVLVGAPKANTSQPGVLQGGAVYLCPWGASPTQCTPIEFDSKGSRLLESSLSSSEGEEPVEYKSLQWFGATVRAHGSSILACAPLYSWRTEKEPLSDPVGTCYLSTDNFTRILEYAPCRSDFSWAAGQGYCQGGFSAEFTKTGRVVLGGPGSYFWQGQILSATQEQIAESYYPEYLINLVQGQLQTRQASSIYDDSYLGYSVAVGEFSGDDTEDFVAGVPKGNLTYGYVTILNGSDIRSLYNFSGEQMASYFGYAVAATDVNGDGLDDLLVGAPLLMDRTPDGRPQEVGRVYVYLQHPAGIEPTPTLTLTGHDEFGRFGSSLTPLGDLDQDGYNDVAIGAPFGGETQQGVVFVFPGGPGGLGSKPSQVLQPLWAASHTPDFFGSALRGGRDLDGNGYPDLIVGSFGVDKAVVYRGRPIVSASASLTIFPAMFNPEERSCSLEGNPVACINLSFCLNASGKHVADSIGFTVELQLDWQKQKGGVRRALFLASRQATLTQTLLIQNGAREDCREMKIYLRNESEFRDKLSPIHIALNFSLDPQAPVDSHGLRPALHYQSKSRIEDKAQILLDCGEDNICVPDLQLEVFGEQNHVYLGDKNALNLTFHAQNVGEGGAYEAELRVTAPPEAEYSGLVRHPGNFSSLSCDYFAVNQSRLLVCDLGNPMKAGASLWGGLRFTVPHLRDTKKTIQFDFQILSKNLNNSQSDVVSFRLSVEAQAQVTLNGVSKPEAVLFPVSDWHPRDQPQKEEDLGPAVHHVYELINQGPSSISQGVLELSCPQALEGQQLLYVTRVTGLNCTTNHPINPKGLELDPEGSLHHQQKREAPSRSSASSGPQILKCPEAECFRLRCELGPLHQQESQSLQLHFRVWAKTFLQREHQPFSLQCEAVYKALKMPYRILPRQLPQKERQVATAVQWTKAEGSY
T2 sequence (P05556 21-728 limits assumed, chain 2 of 2): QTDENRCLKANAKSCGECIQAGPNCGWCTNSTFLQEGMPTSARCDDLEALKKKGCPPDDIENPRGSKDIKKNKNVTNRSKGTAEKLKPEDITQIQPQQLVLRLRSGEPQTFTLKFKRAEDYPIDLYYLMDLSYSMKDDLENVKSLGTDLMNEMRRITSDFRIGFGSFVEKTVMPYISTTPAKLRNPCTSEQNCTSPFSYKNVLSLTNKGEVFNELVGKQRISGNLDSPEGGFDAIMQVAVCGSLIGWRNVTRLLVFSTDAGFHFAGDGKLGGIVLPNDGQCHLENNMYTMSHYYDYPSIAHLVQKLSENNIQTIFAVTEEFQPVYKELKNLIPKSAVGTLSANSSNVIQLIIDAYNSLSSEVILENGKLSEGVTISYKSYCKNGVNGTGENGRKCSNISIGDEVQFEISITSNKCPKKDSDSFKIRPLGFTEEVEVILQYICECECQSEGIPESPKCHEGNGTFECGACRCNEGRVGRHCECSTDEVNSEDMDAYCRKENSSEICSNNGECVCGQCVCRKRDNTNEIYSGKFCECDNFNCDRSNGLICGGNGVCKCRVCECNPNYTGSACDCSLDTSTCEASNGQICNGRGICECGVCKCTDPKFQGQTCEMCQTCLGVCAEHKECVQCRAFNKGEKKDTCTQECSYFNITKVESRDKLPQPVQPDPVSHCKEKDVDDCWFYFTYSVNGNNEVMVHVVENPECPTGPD

[4] = target: T3, integrin alphaVbeta1 protein (R&D systems) (human, UniProt P06756 31-992; P05556 21-728); test: as above
T3 construct: Bought recombinant heterodimer coated on the ELISA plate; also called αVβ1
T3 sequence (P06756 31-992 limits assumed, chain 1 of 2): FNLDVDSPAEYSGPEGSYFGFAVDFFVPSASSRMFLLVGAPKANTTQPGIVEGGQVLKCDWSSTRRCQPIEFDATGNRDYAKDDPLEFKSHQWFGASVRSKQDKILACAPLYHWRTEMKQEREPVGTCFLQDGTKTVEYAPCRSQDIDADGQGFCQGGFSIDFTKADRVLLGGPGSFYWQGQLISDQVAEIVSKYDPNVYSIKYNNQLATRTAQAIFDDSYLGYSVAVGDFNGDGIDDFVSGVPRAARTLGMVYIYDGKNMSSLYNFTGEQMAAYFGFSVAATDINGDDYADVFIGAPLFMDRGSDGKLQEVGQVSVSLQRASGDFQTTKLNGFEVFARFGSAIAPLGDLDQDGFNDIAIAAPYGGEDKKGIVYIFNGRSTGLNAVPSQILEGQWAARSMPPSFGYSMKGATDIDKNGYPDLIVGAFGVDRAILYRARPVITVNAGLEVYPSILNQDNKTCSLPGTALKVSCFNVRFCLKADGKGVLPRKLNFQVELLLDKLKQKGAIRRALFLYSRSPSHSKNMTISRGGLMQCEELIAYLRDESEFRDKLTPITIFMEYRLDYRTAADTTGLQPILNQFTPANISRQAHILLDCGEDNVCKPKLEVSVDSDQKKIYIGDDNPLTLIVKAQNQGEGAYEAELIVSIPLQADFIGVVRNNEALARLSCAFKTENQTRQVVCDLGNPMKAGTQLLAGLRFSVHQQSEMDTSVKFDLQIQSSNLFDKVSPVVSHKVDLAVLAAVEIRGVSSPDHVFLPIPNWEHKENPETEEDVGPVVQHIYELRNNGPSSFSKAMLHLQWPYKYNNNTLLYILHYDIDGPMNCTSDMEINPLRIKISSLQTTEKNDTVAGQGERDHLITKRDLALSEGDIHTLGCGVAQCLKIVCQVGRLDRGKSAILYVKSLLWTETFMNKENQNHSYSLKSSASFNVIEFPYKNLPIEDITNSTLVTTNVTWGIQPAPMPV
T3 sequence (P05556 21-728 limits assumed, chain 2 of 2): as the sequence (P05556 21-728 limits assumed, chain 2 of 2) above

[5] = target: T4, integrin alphaVbeta3 protein (R&D systems) (human, UniProt P06756 31-992; P05106 27-718); test: as above
T4 construct: Bought recombinant heterodimer coated on the ELISA plate; also called αVβ3; integrin (αVβ3)
T4 sequence (P06756 31-992 limits assumed, chain 1 of 2): as the sequence (P06756 31-992 limits assumed, chain 1 of 2) above
T4 sequence (P05106 27-718 limits assumed, chain 2 of 2): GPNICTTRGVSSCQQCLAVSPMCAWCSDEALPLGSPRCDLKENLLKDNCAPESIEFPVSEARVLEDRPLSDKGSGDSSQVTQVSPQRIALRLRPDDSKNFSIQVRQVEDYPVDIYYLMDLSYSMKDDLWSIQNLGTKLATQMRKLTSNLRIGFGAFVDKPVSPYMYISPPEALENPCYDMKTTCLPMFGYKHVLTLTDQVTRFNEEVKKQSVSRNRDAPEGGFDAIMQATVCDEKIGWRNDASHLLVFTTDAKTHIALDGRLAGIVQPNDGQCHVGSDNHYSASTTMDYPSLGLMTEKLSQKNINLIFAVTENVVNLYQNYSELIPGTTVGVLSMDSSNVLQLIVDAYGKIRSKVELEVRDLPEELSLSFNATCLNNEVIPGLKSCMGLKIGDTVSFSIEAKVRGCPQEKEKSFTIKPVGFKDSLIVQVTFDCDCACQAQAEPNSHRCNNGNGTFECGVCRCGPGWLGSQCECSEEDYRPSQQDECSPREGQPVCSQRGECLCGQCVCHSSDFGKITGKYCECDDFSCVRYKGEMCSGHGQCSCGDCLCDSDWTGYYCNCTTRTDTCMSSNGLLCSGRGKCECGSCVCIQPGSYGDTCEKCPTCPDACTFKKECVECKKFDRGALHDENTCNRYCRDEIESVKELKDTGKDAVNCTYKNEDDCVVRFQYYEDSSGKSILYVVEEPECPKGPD

[6] = target: T4, integrin alphaVbeta3 protein (R&D …); test: ELISA, integrin αVβ3 coated, Ang2 proteins at 5 µg/ml

T1 sequence (Q02763 23-745 limits assumed, one chain of several): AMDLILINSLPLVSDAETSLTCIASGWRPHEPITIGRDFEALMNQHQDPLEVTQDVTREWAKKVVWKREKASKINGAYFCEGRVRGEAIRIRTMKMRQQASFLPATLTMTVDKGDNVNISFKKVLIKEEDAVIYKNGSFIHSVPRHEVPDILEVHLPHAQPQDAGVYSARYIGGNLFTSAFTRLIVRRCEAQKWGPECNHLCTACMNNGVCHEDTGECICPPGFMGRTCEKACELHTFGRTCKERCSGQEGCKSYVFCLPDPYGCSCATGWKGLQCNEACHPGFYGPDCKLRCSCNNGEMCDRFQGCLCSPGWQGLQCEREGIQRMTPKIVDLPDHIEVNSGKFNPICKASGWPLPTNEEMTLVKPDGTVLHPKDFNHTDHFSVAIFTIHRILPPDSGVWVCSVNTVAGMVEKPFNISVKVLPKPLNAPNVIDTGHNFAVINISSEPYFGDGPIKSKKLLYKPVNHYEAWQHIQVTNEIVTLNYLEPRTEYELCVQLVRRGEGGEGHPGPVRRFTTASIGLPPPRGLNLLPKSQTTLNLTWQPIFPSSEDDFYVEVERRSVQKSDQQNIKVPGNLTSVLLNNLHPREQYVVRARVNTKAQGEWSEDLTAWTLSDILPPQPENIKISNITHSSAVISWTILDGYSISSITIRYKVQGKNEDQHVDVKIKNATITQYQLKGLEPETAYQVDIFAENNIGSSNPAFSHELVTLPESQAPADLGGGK

| decrease in Ang2 dependent cell adhesion of U87MG cells to Ang2-coated plates, peptide at 100 µg/ml [1] [%] | binding result [2] | Binder | further results |
| --- | --- | --- | --- |
| > 50 |  | EYWLGNEFVSQLTNQ [Ang2 derived peptide of SEQ ID No. 15 (Peptide 15)] |  |
| > 50 |  | LNYRIHLKGLTGTAG [Ang2 derived peptide of SEQ ID No. 24] |  |
|  | binds | Ang2 protein having FLAG sequences tagged at its N-terminal (FLAG-Ang2), wild type (ligand, it may include a signal peptide that is absent from the protein; also called FLAG-tagged Ang2; wild-type Ang2 protein) DYKDDDDKYNNFRKSMDSIGKKQYQVQHGSCSYTFLLPEMDNCRSSSSPYVSNAVQRDAPLEYDDSVQRLQVLENIMENNTQWLMKLENYIQDNMKKEMVEIQQNAVQNQTAVMIEIGTNLLNQTAEQTRKLTDVEAQVLNQTTRLELQLLEHSLSTNKLEKQILDQTSEINKLQDKNSFLEKKVLAMEDKHIIQLQSIKEEKDQLQVLVSKQNSIIEELEKKIVTATVNNSVLQKQQHDLMETVNNLLTMMSTSNSAKDPTVAKEEQISFRDCAEVFKSGHTTNGIYTLTFPNSTEEIKAYCDMEAGGGGWTIIQRREDGSVDFQRTWKEYKVGFGNPSGEYWLGNEFVSQLTNQQRYVLKIHLKDWEGNEAYSLYEHFYLSSEELNYRIHLKGLTGTAGKISSISQPGNDFSTKDGDNDKCICKCSQMLTGGWWFDACGPSNLNGMYYPQRQNTNKFNGIKWYYWKGSGYSLKATTMMIRPADF | binding result [3]: binds; binding result [4]: binds; binding result [5]: binds |
|  | binds | FLAG-Ang2 protein modified form (Q362A) (ligand, also called Q362A Ang2 protein; Q362A modified form) DYKDDDDKYNNFRKSMDSIGKKQYQVQHGSCSYTFLLPEMDNCRSSSSPYVSNAVQRDAPLEYDDSVQRLQVLENIMENNTQWLMKLENYIQDNMKKEMVEIQQNAVQNQTAVMIEIGTNLLNQTAEQTRKLTDVEAQVLNQTTRLELQLLEHSLSTNKLEKQILDQTSEINKLQDKNSFLEKKVLAMEDKHIIQLQSIKEEKDQLQVLVSKQNSIIEELEKKIVTATVNNSVLQKQQHDLMETVNNLLTMMSTSNSAKDPTVAKEEQISFRDCAEVFKSGHTTNGIYTLTFPNSTEEIKAYCDMEAGGGGWTIIQRREDGSVDFQRTWKEYKVGFGNPSGEYWLGNEFVSALTNQQRYVLKIHLKDWEGNEAYSLYEHFYLSSEELNYRIHLKGLTGTAGKISSISQPGNDFSTKDGDNDKCICKCSQMLTGGWWFDACGPSNLNGMYYPQRQNTNKFNGIKWYYWKGSGYSLKATTMMIRPADF | invasion of U87MG cells through matrigel-coated transwell toward 5 µg/ml Ang2 protein, 48 hours (fraction of wild type Ang2) [1]: 0.5; binding level relative to the wild type Ang2 [6]: ≤ 50% |
| > 50 |  | HTTNGIYTLTFPNST [Ang2 derived peptide of SEQ ID No. 3] |  |
| > 50 |  | IYTLTFPNSTEEIKA [Ang2 derived peptide of SEQ ID No. 4] |  |

Reference: US20160101154A1 (SAMSUNG ELECTRONICS, published 2016)
